T1: TNFR1 (Homo sapiens, UniProt P19438)
T1 chain: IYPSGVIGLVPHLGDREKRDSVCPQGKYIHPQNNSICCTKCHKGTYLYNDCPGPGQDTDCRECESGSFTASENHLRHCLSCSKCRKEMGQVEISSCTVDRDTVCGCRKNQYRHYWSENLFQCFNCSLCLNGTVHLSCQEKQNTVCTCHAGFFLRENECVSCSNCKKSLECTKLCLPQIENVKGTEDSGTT


Target: T1, TNFR1
Assay: yeast display SC50

apparent Kd (screen) [nM] | Binder
0.718 | A98G (designed binder) MTLQELLREEALRRAEAEAFRYALELLAEKFPEQKEYLLDLAEEIESQIRSLSGVDVEDVRKFLDKEWAWVKELLAEHPAELAEVEAARAARLAELRGEVEAKVAA
0.539 | E18I (designed binder) MTLQELLREEALRRAEAIAFRYALELLAEKFPEQKEYLLDLAEEIESQIRSLSGVDVEDVRKFLDKEWAWVKELLAEHPAELAEVEAARAARLAELRAEVEAKVAA
0.49 | A87D (designed binder) MTLQELLREEALRRAEAEAFRYALELLAEKFPEQKEYLLDLAEEIESQIRSLSGVDVEDVRKFLDKEWAWVKELLAEHPAELAEVEDARAARLAELRAEVEAKVAA
0.79 | A80G (designed binder) MTLQELLREEALRRAEAEAFRYALELLAEKFPEQKEYLLDLAEEIESQIRSLSGVDVEDVRKFLDKEWAWVKELLAEHPGELAEVEAARAARLAELRAEVEAKVAA
0.405 | E36S (designed binder) MTLQELLREEALRRAEAEAFRYALELLAEKFPEQKSYLLDLAEEIESQIRSLSGVDVEDVRKFLDKEWAWVKELLAEHPAELAEVEAARAARLAELRAEVEAKVAA
0.653 | A69G (designed binder) MTLQELLREEALRRAEAEAFRYALELLAEKFPEQKEYLLDLAEEIESQIRSLSGVDVEDVRKFLDKEWGWVKELLAEHPAELAEVEAARAARLAELRAEVEAKVAA
0.539 | D65K (designed binder) MTLQELLREEALRRAEAEAFRYALELLAEKFPEQKEYLLDLAEEIESQIRSLSGVDVEDVRKFLKKEWAWVKELLAEHPAELAEVEAARAARLAELRAEVEAKVAA
0.653 | V104E (designed binder) MTLQELLREEALRRAEAEAFRYALELLAEKFPEQKEYLLDLAEEIESQIRSLSGVDVEDVRKFLDKEWAWVKELLAEHPAELAEVEAARAARLAELRAEVEAKEAA
0.539 | E10D (designed binder) MTLQELLREDALRRAEAEAFRYALELLAEKFPEQKEYLLDLAEEIESQIRSLSGVDVEDVRKFLDKEWAWVKELLAEHPAELAEVEAARAARLAELRAEVEAKVAA
0.956 | F63S (designed binder) MTLQELLREEALRRAEAEAFRYALELLAEKFPEQKEYLLDLAEEIESQIRSLSGVDVEDVRKSLDKEWAWVKELLAEHPAELAEVEAARAARLAELRAEVEAKVAA
0.593 | A83T (designed binder) MTLQELLREEALRRAEAEAFRYALELLAEKFPEQKEYLLDLAEEIESQIRSLSGVDVEDVRKFLDKEWAWVKELLAEHPAELTEVEAARAARLAELRAEVEAKVAA
0.653 | R14E (designed binder) MTLQELLREEALREAEAEAFRYALELLAEKFPEQKEYLLDLAEEIESQIRSLSGVDVEDVRKFLDKEWAWVKELLAEHPAELAEVEAARAARLAELRAEVEAKVAA
1.16 | Q4S (designed binder) MTLSELLREEALRRAEAEAFRYALELLAEKFPEQKEYLLDLAEEIESQIRSLSGVDVEDVRKFLDKEWAWVKELLAEHPAELAEVEAARAARLAELRAEVEAKVAA

The next lines start with the binder.

Binder | apparent Kd (screen) [nM]
E33S (designed binder) MTLQELLREEALRRAEAEAFRYALELLAEKFPSQKEYLLDLAEEIESQIRSLSGVDVEDVRKFLDKEWAWVKELLAEHPAELAEVEAARAARLAELRAEVEAKVAA | 0.49
W68R (designed binder) MTLQELLREEALRRAEAEAFRYALELLAEKFPEQKEYLLDLAEEIESQIRSLSGVDVEDVRKFLDKERAWVKELLAEHPAELAEVEAARAARLAELRAEVEAKVAA | 2.48
T2E (designed binder) MELQELLREEALRRAEAEAFRYALELLAEKFPEQKEYLLDLAEEIESQIRSLSGVDVEDVRKFLDKEWAWVKELLAEHPAELAEVEAARAARLAELRAEVEAKVAA | 2.73
L64C (designed binder) MTLQELLREEALRRAEAEAFRYALELLAEKFPEQKEYLLDLAEEIESQIRSLSGVDVEDVRKFCDKEWAWVKELLAEHPAELAEVEAARAARLAELRAEVEAKVAA | 2.48
V100N (designed binder) MTLQELLREEALRRAEAEAFRYALELLAEKFPEQKEYLLDLAEEIESQIRSLSGVDVEDVRKFLDKEWAWVKELLAEHPAELAEVEAARAARLAELRAENEAKVAA | 0.593
S53V (designed binder) MTLQELLREEALRRAEAEAFRYALELLAEKFPEQKEYLLDLAEEIESQIRSLVGVDVEDVRKFLDKEWAWVKELLAEHPAELAEVEAARAARLAELRAEVEAKVAA | 2.48
A42D (designed binder) MTLQELLREEALRRAEAEAFRYALELLAEKFPEQKEYLLDLDEEIESQIRSLSGVDVEDVRKFLDKEWAWVKELLAEHPAELAEVEAARAARLAELRAEVEAKVAA | 1.86
R92L (designed binder) MTLQELLREEALRRAEAEAFRYALELLAEKFPEQKEYLLDLAEEIESQIRSLSGVDVEDVRKFLDKEWAWVKELLAEHPAELAEVEAARAALLAELRAEVEAKVAA | 0.446
A76G (designed binder) MTLQELLREEALRRAEAEAFRYALELLAEKFPEQKEYLLDLAEEIESQIRSLSGVDVEDVRKFLDKEWAWVKELLGEHPAELAEVEAARAARLAELRAEVEAKVAA | 0.49
A80C (designed binder) MTLQELLREEALRRAEAEAFRYALELLAEKFPEQKEYLLDLAEEIESQIRSLSGVDVEDVRKFLDKEWAWVKELLAEHPCELAEVEAARAARLAELRAEVEAKVAA | 0.49
E84H (designed binder) MTLQELLREEALRRAEAEAFRYALELLAEKFPEQKEYLLDLAEEIESQIRSLSGVDVEDVRKFLDKEWAWVKELLAEHPAELAHVEAARAARLAELRAEVEAKVAA | 0.869
D65N (designed binder) MTLQELLREEALRRAEAEAFRYALELLAEKFPEQKEYLLDLAEEIESQIRSLSGVDVEDVRKFLNKEWAWVKELLAEHPAELAEVEAARAARLAELRAEVEAKVAA | 0.49
L74V (designed binder) MTLQELLREEALRRAEAEAFRYALELLAEKFPEQKEYLLDLAEEIESQIRSLSGVDVEDVRKFLDKEWAWVKEVLAEHPAELAEVEAARAARLAELRAEVEAKVAA | 2.48
R14W (designed binder) MTLQELLREEALRWAEAEAFRYALELLAEKFPEQKEYLLDLAEEIESQIRSLSGVDVEDVRKFLDKEWAWVKELLAEHPAELAEVEAARAARLAELRAEVEAKVAA | 0.539
V60W (designed binder) MTLQELLREEALRRAEAEAFRYALELLAEKFPEQKEYLLDLAEEIESQIRSLSGVDVEDWRKFLDKEWAWVKELLAEHPAELAEVEAARAARLAELRAEVEAKVAA | 0.79
G54F (designed binder) MTLQELLREEALRRAEAEAFRYALELLAEKFPEQKEYLLDLAEEIESQIRSLSFVDVEDVRKFLDKEWAWVKELLAEHPAELAEVEAARAARLAELRAEVEAKVAA | 12.5
A19N (designed binder) MTLQELLREEALRRAEAENFRYALELLAEKFPEQKEYLLDLAEEIESQIRSLSGVDVEDVRKFLDKEWAWVKELLAEHPAELAEVEAARAARLAELRAEVEAKVAA | 0.446
A17D (designed binder) MTLQELLREEALRRAEDEAFRYALELLAEKFPEQKEYLLDLAEEIESQIRSLSGVDVEDVRKFLDKEWAWVKELLAEHPAELAEVEAARAARLAELRAEVEAKVAA | 0.79
F31W (designed binder) MTLQELLREEALRRAEAEAFRYALELLAEKWPEQKEYLLDLAEEIESQIRSLSGVDVEDVRKFLDKEWAWVKELLAEHPAELAEVEAARAARLAELRAEVEAKVAA | 1.16
A94F (designed binder) MTLQELLREEALRRAEAEAFRYALELLAEKFPEQKEYLLDLAEEIESQIRSLSGVDVEDVRKFLDKEWAWVKELLAEHPAELAEVEAARAARLFELRAEVEAKVAA | 0.593
W68G (designed binder) MTLQELLREEALRRAEAEAFRYALELLAEKFPEQKEYLLDLAEEIESQIRSLSGVDVEDVRKFLDKEGAWVKELLAEHPAELAEVEAARAARLAELRAEVEAKVAA | 0.718
A90Y (designed binder) MTLQELLREEALRRAEAEAFRYALELLAEKFPEQKEYLLDLAEEIESQIRSLSGVDVEDVRKFLDKEWAWVKELLAEHPAELAEVEAARYARLAELRAEVEAKVAA | 0.718

Reference: article PMC12416549 (2024)
